Experimental findings from paper PMC5415871 (Biochemistry, 2017) are described below.

The target in assay [1] is type 2α regulatory subunit of PKA (RIIα), full length (rat, UniProt P12368 1-401). Nature of the assay: fluorescence polarisation.
The target of assay [2] is type 2β regulatory subunit of PKA (RIIβ), full length (rat, UniProt P12369 1-416). Kind of assay: fluorescence polarisation.
Sequence of type 2β regulatory subunit of PKA (RIIβ), full length (P12369 whole entry): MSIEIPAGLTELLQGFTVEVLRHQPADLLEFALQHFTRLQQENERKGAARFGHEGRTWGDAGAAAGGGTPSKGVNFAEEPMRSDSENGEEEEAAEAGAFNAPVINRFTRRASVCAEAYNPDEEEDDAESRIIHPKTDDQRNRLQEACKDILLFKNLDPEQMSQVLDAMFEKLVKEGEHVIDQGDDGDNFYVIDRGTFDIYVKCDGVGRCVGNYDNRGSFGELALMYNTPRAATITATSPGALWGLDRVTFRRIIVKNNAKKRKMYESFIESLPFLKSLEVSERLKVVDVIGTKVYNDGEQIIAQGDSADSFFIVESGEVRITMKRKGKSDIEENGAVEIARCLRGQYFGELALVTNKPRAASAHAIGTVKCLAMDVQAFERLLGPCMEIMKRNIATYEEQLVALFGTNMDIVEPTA

Sequence of type 2α regulatory subunit of PKA (RIIα), full length (P12368 whole entry): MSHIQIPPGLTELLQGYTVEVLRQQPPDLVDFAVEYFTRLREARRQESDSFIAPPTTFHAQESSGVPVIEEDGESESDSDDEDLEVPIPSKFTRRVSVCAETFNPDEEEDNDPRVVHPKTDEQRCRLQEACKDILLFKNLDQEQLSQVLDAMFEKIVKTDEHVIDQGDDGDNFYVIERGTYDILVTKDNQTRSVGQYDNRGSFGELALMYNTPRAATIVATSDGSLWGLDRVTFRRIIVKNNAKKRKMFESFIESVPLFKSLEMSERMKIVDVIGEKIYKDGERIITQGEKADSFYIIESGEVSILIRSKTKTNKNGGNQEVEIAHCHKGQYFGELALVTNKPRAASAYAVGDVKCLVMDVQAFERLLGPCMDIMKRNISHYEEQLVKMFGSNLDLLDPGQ

B1: S100A1 (natural protein)
chain: GSELETAMETLINVFHAHSGKEGDKYKLSKKELKELLQTELSGFLDAQKDVDAVDKVMKELDENGDGEVDFQEYVVLVAALTVACNNFFWENS
In the case of B1, the dissociation constant Kd in assay [1] is 990 nM; in assay [2], 2160 nM.
